From patent publication US20140357543A1

T1: alcalase (trade name "Alcalase 2.5L", Novozymes) (UniProt P00780)
T1 sequence (looked up): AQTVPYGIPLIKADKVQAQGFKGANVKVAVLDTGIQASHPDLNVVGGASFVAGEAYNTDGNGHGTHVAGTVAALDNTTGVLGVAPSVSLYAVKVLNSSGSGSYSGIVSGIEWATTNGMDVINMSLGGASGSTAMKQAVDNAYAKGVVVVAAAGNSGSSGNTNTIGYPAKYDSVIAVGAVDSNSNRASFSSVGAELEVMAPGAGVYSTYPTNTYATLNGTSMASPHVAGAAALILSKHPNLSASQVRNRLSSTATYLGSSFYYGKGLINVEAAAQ


target: T1, alcalase (trade name "Alcalase 2.5L", Novozymes); assay: cell-based or functional assay

| Binder | Protease activity upon dilution (%) immediately after preparation [%] | Remaining activity (%) immediately after preparation [%] |
| --- | --- | --- |
| proteinaceous protease inhibitor of SEQ ID NO:30 (protein) MSSVEKKPEGVNTGAGDRHNLKTAWPELVGKSVEEAKKVILQDKSEAQIIVLPVGTIVTMEYRIDRVRLFVDKLDNIAQVPRVG | 80 | 15 |
| proteinaceous protease inhibitor of SEQ ID NO:31 (protein) MSSVEKKPEGVNTGAGDRHNLKTEWPELVGKSVEEAKKVILQDKSEAQIAVLPVGTIVTMEYRIDRVRLFVDKLDNIAQVPRVG | 75 | 2 |
| proteinaceous protease inhibitor of SEQ ID NO:32 (protein) MSSVEKKPEGVNTGAGDRHNLKTEWPELVGKSVEEAKKVILQDKSEAQIIVLPVGTIVTMEARIDRVRLFVDKLDNIAQVPRVG | 73 | 15 |
| proteinaceous protease inhibitor of SEQ ID NO:24 (protein) TDTGDHHNQKTEWPELVGKSVEEAKKVILQDKSEAQIVVLPVGTIVTGEYRIDRVRLFVDSLDKIAQVPAVG | 82 | 20 |
| proteinaceous protease inhibitor of SEQ ID NO:9 (protein) TDTGDHHNQKTEWPELVGKSVEEAKKVILQDKSEAQIVVLPVGTIVTMEARIDRVRLFVDSLDKIAQVPRVG | 85 | 18 |
| proteinaceous protease inhibitor of SEQ ID NO:19 (protein) TDTGDHHNQKTEWPELVGKSVEEAKKVILQDKSEAQIVVLPVGTIVTMEYRIDRVRLFVDSLDKIAQVPAVG | 85 | 2 |
| proteinaceous protease inhibitor of SEQ ID NO:20 (protein) TDTGDHHNQKTEWPELVGKSVEEAKKVILQDKSEAQIVVLPVGTIVTMEYRIDRVRLFVDSLDKIAQVPGVG | 100 | 10 |
| proteinaceous protease inhibitor of SEQ ID NO:23 (protein) TDTGDHHNQKTEWPELVGKSVEEAKKVILQDKSEAQIAVLPVGTIVTMEYRAARVRLFVDSLDKIAQVPRVG | 82 | 1 |
| proteinaceous protease inhibitor of SEQ ID NO:18 (protein) TDTGDHHNQKTEWPELVGKSVEEAKKVILQDKSEAQIVVLPVGTIVTMEYRIARVRLFVDSLDKIAQVPRVG | 85 | 3 |
| proteinaceous protease inhibitor of SEQ ID NO:27 (protein) TDTGDHHNQKTKWPELVGKSVEEAKKVILQDKSEAQIVVLPVGTIVTMEYRIDRVRLFVDSLDKIAQVPRVG | 98 | 16 |
| proteinaceous protease inhibitor of SEQ ID NO:10 (protein) TDTGDHHNQKTEWPELVGKSVEEAKKVILQDKSEAQIVVLPVGTIVTMELRIDRVRLFVDSLDKIAQVPRVG | 90 | 9 |
| proteinaceous protease inhibitor of SEQ ID NO:25 (protein) TDTGDHHNQKTEWPELVGKSVEEAKKVILQDKSEAQIAVLPVGTIVTMEYRIDRVRLFVDSLDKIAQVPAVG | 80 | 1 |
| proteinaceous protease inhibitor of SEQ ID NO:16 (protein) TDTGDHHNQKTEWPELVGKSVEEAKKVILQDKSEAQIVVLPVGTIVTMEYRVDRVRLFVDSLDKIAQVPRVG | 95 | 9 |
| proteinaceous protease inhibitor of SEQ ID NO:8 (protein) TDTGDHHNQKTEWPELVGKSVEEAKKVILQDKSEAQIVVLPVGTIVTGEYRIDRVRLFVDSLDKIAQVPRVG | 85 | 23 |
| proteinaceous protease inhibitor of SEQ ID NO:14 (protein) TDTGDHHNQKTEWPELVGKSVEEAKKVILQDKSEAQIVVLPVGTIVTMEYHIDRVRLFVDSLDKIAQVPRVG | 85 | 5 |
| proteinaceous protease inhibitor of SEQ ID NO:28 (protein) TDTGDHHNQKTEWPELVGKSVEEAKKVILQDKSEAQIVVLPVGTIVTMEGRIDRVRLFVDSLDKIAQVPRVG | 90 | 18 |
| proteinaceous protease inhibitor of SEQ ID NO:12 (protein) TDTGDHHNQKTEWPELVGKSVEEAKKVILQDKSEAQIVVLPVGTIVTMEYAIDRVRLFVDSLDKIAQVPRVG | 20 | 2 |
| proteinaceous protease inhibitor of SEQ ID NO:26 (protein) TDTGDHHNQKTDWPELVGKSVEEAPKVILQDKSEAPIAVLPVGTLVTAEAAAARVRLFVDSLDKIAQVPAVG | 85 | 19 |

Next, values leading:

| Protease activity upon dilution (%) immediately after preparation [%] | Remaining activity (%) immediately after preparation [%] | Binder |
| --- | --- | --- |
| 18 | 1 | proteinaceous protease inhibitor of SEQ ID NO:33 (protein) MSSVEKKPEGVNTGAGDRHNLKTEWPELVGKSVEEAKKVILQDKSEAQIIVLPVGTIVTMEYAIDRVRLFVDKLDNIAQVPRVG |
| 75 | 1 | proteinaceous protease inhibitor of SEQ ID NO:34 (protein) MSSVEKKPEGVNTGAGDRHNLKTEWPELVGKSVEEAKKVILQDKSEAQIIVLPVGTIVTMEYRADRVRLFVDKLDNIAQVPRVG |
| 81 | 1 | proteinaceous protease inhibitor of SEQ ID NO:36 (protein) MSSVEKKPEGVNTGAGDRHNLKTEWPELVGKSVEEAKKVILQDKSEAQIIVLPVGTIVTMEYRIDRVRLFVDKLDNIAQVPAVG |
| 80 | 2 | proteinaceous protease inhibitor of SEQ ID NO:35 (protein) MSSVEKKPEGVNTGAGDRHNLKTEWPELVGKSVEEAKKVILQDKSEAQIIVLPVGTIVTMEYRIARVRLFVDKLDNIAQVPRVG |
| 100 | 10 | proteinaceous protease inhibitor of SEQ ID NO:2 (protein) TDTGDHHNQKTDWPELVGKSVEEAKKVILQDKSEAQIVVLPVGTIVTMEYRIDRVRLFVDSLDKIAQVPRVG |
| 95 | 19 | proteinaceous protease inhibitor of SEQ ID NO:29 (protein) TDTGDHHNQKTEWPELVGKSVEEAKKVILQDKSEAQIVVLPVGTIVTMEYRIDRVRLFVDSLDKIAQVPNVG |
| 86 | 25 | proteinaceous protease inhibitor of SEQ ID NO:7 (protein) TDTGDHHNQKTEWPELVGKSVEEAKKVILQDKSEAQIVVLPVGTIVTAEYRIDRVRLFVDSLDKIAQVPRVG |
| 80 | 3 | proteinaceous protease inhibitor of SEQ ID NO:15 (protein) TDTGDHHNQKTEWPELVGKSVEEAKKVILQDKSEAQIVVLPVGTIVTMEYRADRVRLFVDSLDKIAQVPRVG |
| 89 | 7 | proteinaceous protease inhibitor of SEQ ID NO:3 (protein) TDTGDHHNQKTAWPELVGKSVEEAKKVILQDKSEAQIVVLPVGTIVTMEYRIDRVRLFVDSLDKIAQVPRVG |
| 100 | 13 | proteinaceous protease inhibitor of SEQ ID NO:21 (protein) TDTGDHHNQKTEWPELVGKSVEEAKKVILQDKSEAQIVVLPVGTIVTMEYRIDRVRLFVDSLDKIAQVPKVG |
| 25 | 4 | proteinaceous protease inhibitor of SEQ ID NO:13 (protein) TDTGDHHNQKTEWPELVGKSVEEAKKVILQDKSEAQIVVLPVGTIVTMEYKIDRVRLFVDSLDKIAQVPRVG |
| 90 | 8 | proteinaceous protease inhibitor of SEQ ID NO:11 (protein) TDTGDHHNQKTEWPELVGKSVEEAKKVILQDKSEAQIVVLPVGTIVTMEFRIDRVRLFVDSLDKIAQVPRVG |
| 95 | 9 | proteinaceous protease inhibitor of SEQ ID NO:17 (protein) TDTGDHHNQKTEWPELVGKSVEEAKKVILQDKSEAQIVVLPVGTIVTMEYRIERVRLFVDSLDKIAQVPRVG |
| 80 | 2 | proteinaceous protease inhibitor of SEQ ID NO:4 (protein) TDTGDHHNQKTEWPELVGKSVEEAKKVILQDKSEAQIAVLPVGTIVTMEYRIDRVRLFVDSLDKIAQVPRVG |
| 82 | 1 | proteinaceous protease inhibitor of SEQ ID NO:22 (protein) TDTGDHHNQKTEWPELVGKSVEEAKKVILQDKSEAQIAVLPVGTIVTMEYAADRVRLFVDSLDKIAQVPRVG |
